Results from patent US20060204498A1 (MERCK SERONO, published 2006).

T1: human CXCR3 (human, UniProt P49682 1-368)
T1 construct: whole, on cells; in FACS and chemotaxis on whole transfected HEK or L1.2 cells; also called GPR9
T1 sequence (looked up): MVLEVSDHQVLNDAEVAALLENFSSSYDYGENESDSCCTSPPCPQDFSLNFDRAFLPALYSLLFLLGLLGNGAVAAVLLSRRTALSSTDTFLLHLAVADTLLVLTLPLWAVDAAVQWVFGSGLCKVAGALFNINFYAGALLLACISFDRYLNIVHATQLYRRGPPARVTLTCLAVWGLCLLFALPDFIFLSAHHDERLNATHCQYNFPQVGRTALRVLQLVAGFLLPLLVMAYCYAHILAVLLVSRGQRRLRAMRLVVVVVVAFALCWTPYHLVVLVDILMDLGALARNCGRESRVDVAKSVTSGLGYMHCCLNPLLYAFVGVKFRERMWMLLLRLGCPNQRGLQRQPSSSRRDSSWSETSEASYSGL


Columns and labels:
human CXCR3 [1] = biological target: T1, human CXCR3; assay: equilibrium competition receptor binding, SPA, [125I]-CXCL11 tracer, membranes of CXCR3-expressing HEK cells
Procedure: The assays were carried out on membranes from HEK cells stably expressing CXCR3 using a Scintillation Proximity Assay (SPA), with [¹²⁵I]-CXCL11 as tracer. Radiolabelled CXCL11 (recombinant human I-TAC; Peprotech) was generated and tested according to the [¹²⁵I] supplier (Amersham; specific activity of […]), also to check for CXCR3-expressing HEK and L1.2 clones positively stained during FACS analysis.
Competitors were prepared by serial dilutions (range from 10⁻⁶ to 10⁻¹² M) of the unlabelled CXCL11, or one of its mutant, in the binding buffer (50 mM HEPES pH 7.2, 1 mM CaCl₂, 5 mM MgCl₂, 0.15 M NaCl and 0.5% Bovine Serum Albumin). Wheat germ SPA beads (Amersham) were solubilised in PBS to 50 mg/ml, and diluted in the binding buffer to a 10 mg/ml, and the final concentration in the assay was 0.25 mg/well. Cell membranes expressing CXCR3 were stored at −80° C. and diluted in the binding buffer to 20 μg/ml. Equal volumes of membrane and beads stocks were mixed before performing the assay to reduce background. The final membrane concentration was 5 μg/well and that of [¹²⁵I]-CXCL11 was 0.05 nM. The plates were incubated at room temperature with agitation for 4 hours. Radioactivity was counted (1 minute/well) in a beta counter. Data from triplicate samples were analysed using Prism® software (GraphPad).
Finally, an equilibrium competition receptor-binding assay was performed to compare the properties of the muteins on the binding of the specific receptor CXCR3 (FIG. 3). Samples containing a constant amount of radiolabelled, commercial CXCL11 were mixed with serial dilutions of CXCL11-WT, or of one of the muteins, and then incubated with membranes prepared from CXCR3-expressing HEK cells. […] Therefore, the affinity for the receptor is substantially retained in heparin-binding defective CXCL11-WT carboxyl-terminal mutants, whilst the mutations in amino-terminus affect specifically receptor binding, a feature which appears as clearly distinct.

human CXCR3 [2] = biological target: T1, human CXCR3; assay: radioligand equilibrium binding on CXCR3-transfected HEK and L1.2 clones

reduction in the affinity for CXCR3 against CXCL11-WT (human CXCR3 [1]) | Binder | other results
 | mature human CXCL11 (CXCL11-WT) (ligand, 73 residues with no additional residues; also called hCXCL11; I-TAC) FPMFKRGRCLCIGPGVKAVKVADIEKASIMYPSNNCDKIEVIITLKENKGQRCLNPKSKQARLIIKKVERKNF | binding result (human CXCR3 [1]): binds
 | [125I]-CXCL11 (radiolabelled recombinant human I-TAC; Peprotech) (ligand, UniProt O14625 22-94, looked up, [125I] label, site not stated, Commercial protein; also called Radiolabelled CXCL11; radiolabelled, commercial CXCL11) FPMFKRGRCLCIGPGVKAVKVADIEKASIMYPSNNCDKIEVIITLKENKGQRCLNPKSKQARLIIKKVERKNF | binding result (human CXCR3 [2]): binds
≤ 1 order of magnitude | CXCL11-2B3 (ligand, Mutein of mature human CXCL11; E. coli, leader cleaved with caspase 8; also called CXCLII-2B3) FPMFKRGRCLCIGPGVKAVKVADIEKASIMYPSNNCDKIEVIITLAENAGQACLNPKSKQARLIIKKVERKNF | 
≤ 1 order of magnitude | CXCL11-3B3 (ligand, Mutein of mature human CXCL11; E. coli, leader cleaved with caspase 8; also called CXCLII-3B3) FPMFKRGRCLCIGPGVKAVKVADIEKASIMYPSNNCDKIEVIITLKENKGQRCLNPASAQAALIIKKVERKNF | 
≤ 1 order of magnitude | CXCL11-4B4 (ligand, Mutein of mature human CXCL11; E. coli, leader cleaved with caspase 8; also called CXCLII-4B4) FPMFKRGRCLCIGPGVKAVKVADIEKASIMYPSNNCDKIEVIITLKENKGQRCLNPKSKQARLIIAAVEAANF | 
